In paper PMC6910828 (2019):

Legend:
[1] = molecular target: Cy3-labelled, prenylated Cdc42 G12V, GTPγS-bound (Cy3 at the N-terminus (Cy3 N-t labeled LPETGG peptide joined by sortase); geranylgeranyl by in vitro prenylation (C-terminal prenyl moiety); GTPγS-bound); test: GTPγS-bound; extraction from supported lipid bilayers
[2] = molecular target: Cy3-labelled, prenylated Rho G14V, GTPγS-bound (Cy3 at the N-terminus (Cy3 N-t labeled LPETGG peptide joined by sortase); geranylgeranyl by in vitro prenylation (C-terminal prenyl moiety); GTPγS-bound); test: as above
Sequence of Cy3-labelled, prenylated Rho G14V, GTPγS-bound (Cy3 at the N-terminus (Cy3 N-t labeled LPETGG peptide joined by sortase); geranylgeranyl by in vitro prenylation (C-terminal prenyl moiety); GTPγS-bound) (chain, as listed by the source G14V): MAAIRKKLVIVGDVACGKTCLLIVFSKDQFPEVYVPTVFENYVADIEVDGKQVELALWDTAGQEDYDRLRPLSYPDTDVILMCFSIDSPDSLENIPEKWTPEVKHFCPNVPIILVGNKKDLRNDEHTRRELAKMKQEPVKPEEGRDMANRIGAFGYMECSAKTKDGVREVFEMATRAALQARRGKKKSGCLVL

[3] = molecular target: Cy3-labelled, prenylated Rho Q63L, GTP-bound (Cy3 at the N-terminus (Cy3 N-t labeled LPETGG peptide joined by sortase); geranylgeranyl by in vitro prenylation (C-terminal prenyl moiety); GTP-bound); test: GTP-bound; extraction from supported lipid bilayers
Sequence of Cy3-labelled, prenylated Rho Q63L, GTP-bound (Cy3 at the N-terminus (Cy3 N-t labeled LPETGG peptide joined by sortase); geranylgeranyl by in vitro prenylation (C-terminal prenyl moiety); GTP-bound) (chain, as listed by the source Q63L): as the sequence (chain, as listed by the source G14V) above, with V14G, Q63L counted along it

[4] = molecular target: Cy3-labelled, prenylated Cdc42 Q61L, GTP-bound (Cy3 at the N-terminus (Cy3 N-t labeled LPETGG peptide joined by sortase); geranylgeranyl by in vitro prenylation (C-terminal prenyl moiety); GTP-bound); test: as above
Sequence of Cy3-labelled, prenylated Cdc42 Q61L, GTP-bound (Cy3 at the N-terminus (Cy3 N-t labeled LPETGG peptide joined by sortase); geranylgeranyl by in vitro prenylation (C-terminal prenyl moiety); GTP-bound) (chain, as listed by the source Q61L): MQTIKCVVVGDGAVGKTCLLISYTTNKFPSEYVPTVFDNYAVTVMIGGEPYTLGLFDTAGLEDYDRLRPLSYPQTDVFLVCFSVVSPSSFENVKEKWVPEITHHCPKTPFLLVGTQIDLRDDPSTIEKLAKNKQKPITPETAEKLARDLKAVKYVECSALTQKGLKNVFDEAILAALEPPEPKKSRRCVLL

[5] = molecular target: Cy3-labelled, prenylated Rho, wild type, GDP-bound (Cy3 at the N-terminus (Cy3 N-t labeled LPETGG peptide joined by sortase); geranylgeranyl by in vitro prenylation (C-terminal prenyl moiety); GDP-bound); test: GDP-bound; extraction from supported lipid bilayers
Sequence of Cy3-labelled, prenylated Rho, wild type, GDP-bound (Cy3 at the N-terminus (Cy3 N-t labeled LPETGG peptide joined by sortase); geranylgeranyl by in vitro prenylation (C-terminal prenyl moiety); GDP-bound) (chain, as listed by the source): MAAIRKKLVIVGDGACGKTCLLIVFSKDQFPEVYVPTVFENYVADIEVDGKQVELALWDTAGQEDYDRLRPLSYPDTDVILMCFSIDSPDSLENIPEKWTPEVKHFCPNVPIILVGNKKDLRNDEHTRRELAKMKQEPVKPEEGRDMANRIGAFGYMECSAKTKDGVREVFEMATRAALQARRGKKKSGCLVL

[6] = molecular target: Cy3-labelled, prenylated Cdc42, wild type, GDP-bound (Cy3 at the N-terminus (Cy3 N-t labeled LPETGG peptide joined by sortase); geranylgeranyl by in vitro prenylation (C-terminal prenyl moiety); GDP-bound); test: as above
Sequence of Cy3-labelled, prenylated Cdc42, wild type, GDP-bound (Cy3 at the N-terminus (Cy3 N-t labeled LPETGG peptide joined by sortase); geranylgeranyl by in vitro prenylation (C-terminal prenyl moiety); GDP-bound) (P60953 whole entry): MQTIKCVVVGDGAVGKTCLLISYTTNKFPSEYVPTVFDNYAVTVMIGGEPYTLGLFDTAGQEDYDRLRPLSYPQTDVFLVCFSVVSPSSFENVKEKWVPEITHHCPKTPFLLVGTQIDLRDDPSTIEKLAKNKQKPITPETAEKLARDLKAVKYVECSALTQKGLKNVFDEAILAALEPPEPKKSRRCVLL

Sequence of Cy3-labelled, prenylated Cdc42 G12V, GTPγS-bound (Cy3 at the N-terminus (Cy3 N-t labeled LPETGG peptide joined by sortase); geranylgeranyl by in vitro prenylation (C-terminal prenyl moiety); GTPγS-bound) (chain, as listed by the source G12V): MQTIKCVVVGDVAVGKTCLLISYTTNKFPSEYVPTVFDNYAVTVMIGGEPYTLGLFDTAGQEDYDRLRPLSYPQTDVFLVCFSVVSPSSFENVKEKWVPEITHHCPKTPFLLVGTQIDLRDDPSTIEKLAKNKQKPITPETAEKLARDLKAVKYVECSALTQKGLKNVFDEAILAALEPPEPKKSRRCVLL

Kd [1]: 4.95 µM
Kd [2]: 5.43 µM
Kd [3]: 19.6 µM
Kd [4]: 14.4 µM
Kd [5]: 5.77 µM
Kd [6]: 3.41 µM
B1: Xenopus laevis RhoGDI, wild type (natural protein)
chain: MAEHEPTPEQLHQIAAENQDEEHSVDYKPPAQKSIKEIQELDQDDESLRKYKEALLGSLPSSADPEASNVVVTKLTLLCDCAPGPLELDLTGDLEKFKKQSFTLKEGVEYRIKISFKVNKEIVSGLRYQQQTYRKGVRLDRTRYMVGSYGPRVDEYEFLTPIEEAPNGMLARGCYNIKSLFTDDDKSNHLSWEWNLHIKNDWKS
